Experimental data: paper doi:10.1101/2022.01.28.478199
Values joined by “and” are separate entries in the source; they are usually repeats but may differ in a detail not shown here. Identical values can stand only once.

Molecular target: Hsp78TR-6xHis (Hsp78 E216Q/E614Q Walker B mutant with a C-terminal 6x polyhistidine-tag) (S. cerevisiae) (UniProt P33416)
Assay: native gel or EMSA

In the case of “Hsp78TR-6xHis (Hsp78 E216Q/E614Q Walker B mutant with a C-terminal 6x polyhistidine-tag) (from UniProt P33416 45-811) (natural protein)”, the stoichiometry N is reported as 3 and 6.
